Results: IntAct's records for PubMed 31515488

B1: GTP-binding protein GEM (Homo sapiens), P55040 (parent)
chain: MTLNNVTMRQGTVGMQPQQQRWSIPADGRHLMVQKEPHQYSHRNRHSATPEDHCRRSWSSDSTDSVISSESGNTYYRVVLIGEQGVGKSTLANIFAGVHDSMDSDCEVLGEDTYERTLMVDGESATIILLDMWENKGENEWLHDHCMQVGDAYLIVYSITDRASFEKASELRIQLRRARQTEDIPIILVGNKSDLVRCREVSVSEGRACAVVFDCKFIETSAAVQHNVKELFEGIVRQVRLRRDSKEKNERRLAYQKRKESMPRKARRFWGKIVAKNNKNMAFKLKSKSCHDLSVL
B2: Protein FAM9B (Homo sapiens), Q8IZU0 (parent)
chain: MAAWGKKHAGKDPVRDECEERNRFTETREEDVTDEHGEREPFAETDEHTGANTKKPEDTAEDLTAKRKRMKMDKTCSKTKNKSKHALRKKQLKRQKRDYIHSLKLLNVLEEYITDEQKEEEEEEGEEEELIRIFQEQQKKWQQYRSVRRERLKEMKLLRDQFVKALEDFEDLCDRVFSDEDSELDN
partner: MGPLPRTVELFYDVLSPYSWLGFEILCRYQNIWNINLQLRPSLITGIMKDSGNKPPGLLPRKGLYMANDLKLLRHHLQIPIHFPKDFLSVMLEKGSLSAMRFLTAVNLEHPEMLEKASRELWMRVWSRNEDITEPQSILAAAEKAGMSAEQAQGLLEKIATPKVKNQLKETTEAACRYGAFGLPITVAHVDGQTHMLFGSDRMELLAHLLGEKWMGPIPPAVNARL
B3: Tetratricopeptide repeat protein 14 (Homo sapiens), Q96N46 (parent)
chain: MDRDLLRQSLNCHGSSLLSLLRSEQQDNPHFRSLLGSAAEPARGPPPQHPLQGRKEKRVDNIEIQKFISKKADLLFALSWKSDAPATSEINEDSEDHYAIMPPLEQFMEIPSMDRRELFFRDIERGDIVIGRISSIREFGFFMVLICLGSGIMRDIAHLEITALCPLRDVPSHSNHGDPLSYYQTGDIIRAGIKDIDRYHEKLAVSLYSSSLPPHLSGIKLGVISSEELPLYYRRSVELNSNSLESYENVMQSSLGFVNPGVVEFLLEKLGIDESNPPSLMRGLQSKNFSEDDFASALRKKQSASWALKCVKIGVDYFKVGRHVDAMNEYNKALEIDKQNVEALVARGALYATKGSLNKAIEDFELALENCPTHRNARKYLCQTLVERGGQLEEEEKFLNAESYYKKALALDETFKDAEDALQKLHKYMQKSLELREKQAEKEEKQKTKKIETSAEKLRKLLKEEKRLKKKRRKSTSSSSVSSADESVSSSSSSSSSGHKRHKKHKRNRSESSRSSRRHSSRASSNQIDQNRKDECYPVPANTSASFLNHKQEVEKLLGKQDRLQYEKTQIKEKDRCPLSSSSLEIPDDFGGRSEDPRDFYNSYKTQAGSSKTEKPYKSERHFSSRRNSSDSFCRNSEDKIYGYRRFEKDIEGRKEHYRRWEPGSVRHSTSPASSEYSWKSVEKYKKYAHSGSRDFSRHEQRYRLNTNQGEYEREDNYGEDIKTEVPEEDALSSKEHSESSVKKNLPQNLLNIFNQIAEFEKEKGNKSKN
B4: Beta-taxilin (Homo sapiens), Q8N3L3 (parent)
chain: MEANHSEQLSAERQSTPPGDSSSLPSHNGLEKEDGQDSPTPVQPPEKEASVHPDISEELNRQLEDIINTYGSAASTAGKEGSARASEQPENAESPDNEDGDCEETTEEAGREPVASGEPPTVKEPVSNKEQKLEKKILKGLGKEANLLMQNLNKLQTPEEKFDFLFKKYAELLDEHRTEQKKLKLLQKKQVQIQKEKDQLQGEHSRAILARSKLESLCRELQRHNKTLKEEALQRAREEEEKRKEITSHFQSTLTDIQGQIEQQSERNMKLCQENTELAEKLKSIIDQYELREEHLDKIFKHRELQQKLVDAKLEQAQEMMKEAEERHKREKEYLLNQAAEWKLQAKVLKEQETVLQAQLTLYSGRFEEFQSTLTKSNEVFATFKQEMDKTTKKMKKLEKDTATWKARFENCNKALLDMIEEKALRAKEYECFVMKIGRLENLCRALQEERNELHKKIRDAEISEKDDQSQHNSDEEPESNVSVDQEIDAEEVNSVQTAVKNLATAFMIIHHPESTPHQSKETQPEIGSSQESADAALKEPEQPPLIPSRDSESPLPPLTPQAEAEGGSDAEPPSKASNSPAGLGAETQCEGLPVGAQADQASWKPEAEASGQAPQAPTEASLQKMEADVPAPACAAEEHVAAMVPACEPSRQPPRAAAEELPVGASAGPQPRNVADTNLEGVD
partner: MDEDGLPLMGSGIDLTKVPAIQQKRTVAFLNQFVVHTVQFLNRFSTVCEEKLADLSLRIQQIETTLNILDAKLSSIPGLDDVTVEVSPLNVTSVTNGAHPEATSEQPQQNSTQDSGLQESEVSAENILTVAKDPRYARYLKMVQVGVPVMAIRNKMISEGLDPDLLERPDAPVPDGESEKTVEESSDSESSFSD
B5: Four and a half LIM domains protein 2 (Homo sapiens), Q14192 (parent)
chain: MTERFDCHHCNESLFGKKYILREESPYCVVCFETLFANTCEECGKPIGCDCKDLSYKDRHWHEACFHCSQCRNSLVDKPFAAKEDQLLCTDCYSNEYSSKCQECKKTIMPGTRKMEYKGSSWHETCFICHRCQQPIGTKSFIPKDNQNFCVPCYEKQHAMQCVQCKKPITTGGVTYREQPWHKECFVCTACRKQLSGQRFTARDDFAYCLNCFCDLYAKKCAGCTNPISGLGGTKYISFEERQWHNDCFNCKKCSLSLVGRGFLTERDDILCPDCGKDI
partner: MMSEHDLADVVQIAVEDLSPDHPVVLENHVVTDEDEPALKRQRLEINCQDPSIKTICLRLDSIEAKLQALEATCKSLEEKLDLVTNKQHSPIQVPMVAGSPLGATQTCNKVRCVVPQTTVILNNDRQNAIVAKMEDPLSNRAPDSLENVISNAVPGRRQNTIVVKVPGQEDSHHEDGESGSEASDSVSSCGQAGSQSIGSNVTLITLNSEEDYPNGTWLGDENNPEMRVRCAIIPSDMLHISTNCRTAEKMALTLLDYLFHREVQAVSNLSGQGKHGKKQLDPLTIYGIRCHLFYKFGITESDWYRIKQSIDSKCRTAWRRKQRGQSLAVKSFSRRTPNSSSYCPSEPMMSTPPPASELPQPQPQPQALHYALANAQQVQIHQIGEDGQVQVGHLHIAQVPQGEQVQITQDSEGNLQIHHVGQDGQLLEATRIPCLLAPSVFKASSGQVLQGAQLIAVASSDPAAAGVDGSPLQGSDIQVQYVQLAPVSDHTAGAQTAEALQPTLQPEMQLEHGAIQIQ
B6: Nanos homolog 2 (Homo sapiens), P60321 (parent)
chain: MQLPPFDMWKDYFNLSQVVWALIASRGQRLETQEIEEPSPGPPLGQDQGLGAPGANGGLGTLCNFCKHNGESRHVYSSHQLKTPDGVVVCPILRHYVCPVCGATGDQAHTLKYCPLNGGQQSLYRRSGRNSAGRRVKR

Variants of: B1
Conditions: with ldoc1_human LDOC1, O95751
Chain of ldoc1_human LDOC1, O95751 (O95751 whole entry): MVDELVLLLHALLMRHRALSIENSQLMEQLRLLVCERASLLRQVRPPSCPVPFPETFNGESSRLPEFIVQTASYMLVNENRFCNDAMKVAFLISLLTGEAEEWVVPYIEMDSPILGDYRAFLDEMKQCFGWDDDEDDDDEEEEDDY

| effect of a mutation on the interaction | Variant |
| --- | --- |
| with no effect | R43G |

Variants of: B1
Conditions: with tri23_human TRIM23, P36406
Chain of tri23_human TRIM23, P36406 (P36406 whole entry): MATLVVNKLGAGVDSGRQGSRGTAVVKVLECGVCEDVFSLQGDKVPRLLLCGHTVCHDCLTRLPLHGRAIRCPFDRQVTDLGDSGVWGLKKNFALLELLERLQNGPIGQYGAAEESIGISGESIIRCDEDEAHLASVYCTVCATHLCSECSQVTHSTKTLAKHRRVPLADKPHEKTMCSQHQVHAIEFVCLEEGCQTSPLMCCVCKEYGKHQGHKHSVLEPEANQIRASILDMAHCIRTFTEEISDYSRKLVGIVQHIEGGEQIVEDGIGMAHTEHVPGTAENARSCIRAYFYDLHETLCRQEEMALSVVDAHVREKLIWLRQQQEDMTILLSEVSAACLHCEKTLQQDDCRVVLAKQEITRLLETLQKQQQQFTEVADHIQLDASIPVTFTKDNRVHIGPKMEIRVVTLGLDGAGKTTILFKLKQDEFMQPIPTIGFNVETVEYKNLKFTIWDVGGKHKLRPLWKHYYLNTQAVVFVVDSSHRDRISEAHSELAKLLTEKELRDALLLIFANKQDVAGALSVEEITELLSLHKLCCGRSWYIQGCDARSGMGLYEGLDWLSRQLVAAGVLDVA

| effect of a mutation on the interaction | Variant |
| --- | --- |
| with no effect | R43G |

Variants of: B1
Conditions: with nemo_human IKBKG

| effect of a mutation on the interaction | Variant |
| --- | --- |
| with no effect | R43G |

Variants of: B1
Conditions: with mtus2_human MTUS2, Q5JR59
Chain of mtus2_human MTUS2, Q5JR59 (Q5JR59 whole entry): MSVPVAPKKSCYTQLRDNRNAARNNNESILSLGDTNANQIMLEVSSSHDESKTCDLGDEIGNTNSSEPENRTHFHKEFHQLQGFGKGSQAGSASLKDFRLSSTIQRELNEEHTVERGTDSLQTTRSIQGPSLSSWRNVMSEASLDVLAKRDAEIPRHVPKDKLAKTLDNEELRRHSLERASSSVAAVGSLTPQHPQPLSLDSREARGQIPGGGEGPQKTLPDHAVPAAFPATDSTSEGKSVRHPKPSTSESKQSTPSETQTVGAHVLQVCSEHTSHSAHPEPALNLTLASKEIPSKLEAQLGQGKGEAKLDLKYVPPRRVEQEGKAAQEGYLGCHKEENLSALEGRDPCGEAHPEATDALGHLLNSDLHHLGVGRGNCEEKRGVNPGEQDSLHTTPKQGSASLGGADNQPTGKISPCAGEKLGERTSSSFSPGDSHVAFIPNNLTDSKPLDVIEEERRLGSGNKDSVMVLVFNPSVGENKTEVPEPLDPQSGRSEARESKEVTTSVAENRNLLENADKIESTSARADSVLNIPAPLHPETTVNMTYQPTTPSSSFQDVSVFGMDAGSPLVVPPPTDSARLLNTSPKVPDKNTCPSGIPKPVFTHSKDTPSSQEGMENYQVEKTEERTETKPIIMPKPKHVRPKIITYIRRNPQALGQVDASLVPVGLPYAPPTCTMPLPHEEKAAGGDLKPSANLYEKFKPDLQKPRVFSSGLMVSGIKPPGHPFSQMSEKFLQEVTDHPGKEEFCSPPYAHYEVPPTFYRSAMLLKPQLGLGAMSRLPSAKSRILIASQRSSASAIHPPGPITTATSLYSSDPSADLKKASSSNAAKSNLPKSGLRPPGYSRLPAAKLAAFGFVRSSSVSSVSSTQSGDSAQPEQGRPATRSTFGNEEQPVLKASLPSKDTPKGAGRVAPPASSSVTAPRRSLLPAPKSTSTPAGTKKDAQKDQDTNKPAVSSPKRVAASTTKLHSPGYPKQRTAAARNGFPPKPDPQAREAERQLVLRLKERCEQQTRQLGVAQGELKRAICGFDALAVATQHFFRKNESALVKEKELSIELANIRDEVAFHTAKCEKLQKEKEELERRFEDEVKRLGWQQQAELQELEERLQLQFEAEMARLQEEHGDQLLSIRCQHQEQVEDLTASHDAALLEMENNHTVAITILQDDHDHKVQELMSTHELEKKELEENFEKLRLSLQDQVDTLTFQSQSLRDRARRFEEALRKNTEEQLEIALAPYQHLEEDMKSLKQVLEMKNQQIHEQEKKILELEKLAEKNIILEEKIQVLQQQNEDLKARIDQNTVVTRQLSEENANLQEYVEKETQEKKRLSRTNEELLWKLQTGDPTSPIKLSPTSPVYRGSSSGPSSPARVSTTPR

| effect of a mutation on the interaction | Variant |
| --- | --- |
| with no effect | R43G |

Variants of: B1
Conditions: with pdli7_human PDLIM7, Q9NR12
Chain of pdli7_human PDLIM7, Q9NR12 (Q9NR12 whole entry): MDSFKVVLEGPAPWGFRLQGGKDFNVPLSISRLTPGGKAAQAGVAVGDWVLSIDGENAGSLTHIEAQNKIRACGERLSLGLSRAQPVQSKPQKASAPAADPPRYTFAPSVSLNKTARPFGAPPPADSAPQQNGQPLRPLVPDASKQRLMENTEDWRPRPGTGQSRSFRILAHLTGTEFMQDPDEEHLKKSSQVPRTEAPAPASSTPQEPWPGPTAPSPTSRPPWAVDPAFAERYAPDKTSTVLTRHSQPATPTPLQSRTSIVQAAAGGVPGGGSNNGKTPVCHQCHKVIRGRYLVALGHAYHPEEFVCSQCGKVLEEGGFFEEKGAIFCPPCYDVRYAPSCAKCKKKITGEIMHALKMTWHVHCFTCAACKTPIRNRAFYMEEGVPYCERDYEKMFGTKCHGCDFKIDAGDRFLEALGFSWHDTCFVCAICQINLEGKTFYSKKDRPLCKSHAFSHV

| effect of a mutation on the interaction | Variant |
| --- | --- |
| with no effect | R43G |

Variants of: B2
Conditions: with gstk1_human GSTK1, Q9Y2Q3

| effect of a mutation on the interaction | Variant |
| --- | --- |
| with no effect | R23H |

Variants of: B3
Conditions: with cep70_human CEP70, Q8NHQ1
Chain of cep70_human CEP70, Q8NHQ1 (Q8NHQ1 whole entry): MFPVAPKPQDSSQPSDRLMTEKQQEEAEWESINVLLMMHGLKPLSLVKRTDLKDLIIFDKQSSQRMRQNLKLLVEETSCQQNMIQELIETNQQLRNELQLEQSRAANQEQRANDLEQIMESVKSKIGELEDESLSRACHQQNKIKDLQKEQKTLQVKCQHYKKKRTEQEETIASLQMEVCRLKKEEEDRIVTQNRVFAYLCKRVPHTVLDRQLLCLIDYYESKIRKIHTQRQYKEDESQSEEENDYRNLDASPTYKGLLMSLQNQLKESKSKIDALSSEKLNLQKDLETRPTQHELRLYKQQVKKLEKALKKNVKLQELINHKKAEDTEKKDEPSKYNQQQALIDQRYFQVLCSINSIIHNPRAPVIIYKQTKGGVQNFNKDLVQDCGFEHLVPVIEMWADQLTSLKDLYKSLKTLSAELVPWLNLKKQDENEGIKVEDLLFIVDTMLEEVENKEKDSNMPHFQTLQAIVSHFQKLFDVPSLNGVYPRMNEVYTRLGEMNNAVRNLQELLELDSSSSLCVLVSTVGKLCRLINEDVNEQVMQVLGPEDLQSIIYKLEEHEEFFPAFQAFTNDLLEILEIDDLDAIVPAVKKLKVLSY

| effect of a mutation on the interaction | Variant |
| --- | --- |
| with no effect | E486Q |
| with no effect | S697G |

Variants of: B4
Conditions: with wasc3_human WASHC3, Q9Y3C0

| effect of a mutation on the interaction | Variant |
| --- | --- |
| with no effect | I527T |

Variants of: B5
Conditions: with banp_human BANP

| effect of a mutation on the interaction | Variant |
| --- | --- |
| with no effect | R177Q |

Variants of: B6
Conditions: with magac_human MAGEA12, P43365
Chain of magac_human MAGEA12, P43365 (P43365 whole entry): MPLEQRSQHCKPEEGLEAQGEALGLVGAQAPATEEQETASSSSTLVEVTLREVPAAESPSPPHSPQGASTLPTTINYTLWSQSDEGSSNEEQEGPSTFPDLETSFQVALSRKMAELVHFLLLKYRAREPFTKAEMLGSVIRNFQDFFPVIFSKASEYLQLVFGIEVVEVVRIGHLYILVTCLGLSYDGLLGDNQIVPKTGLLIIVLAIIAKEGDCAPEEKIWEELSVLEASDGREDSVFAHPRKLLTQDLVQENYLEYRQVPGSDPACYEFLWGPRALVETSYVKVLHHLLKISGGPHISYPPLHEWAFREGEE

| effect of a mutation on the interaction | Variant |
| --- | --- |
| with no effect | R26Q |

Variants of: B6
Conditions: with ccdb1_human CCNDBP1, O95273
Chain of ccdb1_human CCNDBP1, O95273 (O95273 whole entry): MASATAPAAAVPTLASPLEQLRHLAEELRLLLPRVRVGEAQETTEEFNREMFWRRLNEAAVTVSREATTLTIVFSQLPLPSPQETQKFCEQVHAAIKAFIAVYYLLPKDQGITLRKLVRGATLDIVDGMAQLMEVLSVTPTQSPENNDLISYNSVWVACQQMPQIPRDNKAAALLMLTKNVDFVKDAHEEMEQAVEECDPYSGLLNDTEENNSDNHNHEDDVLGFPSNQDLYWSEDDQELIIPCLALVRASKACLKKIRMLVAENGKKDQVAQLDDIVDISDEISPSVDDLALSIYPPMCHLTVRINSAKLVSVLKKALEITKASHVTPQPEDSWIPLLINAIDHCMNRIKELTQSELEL

| effect of a mutation on the interaction | Variant |
| --- | --- |
| with no effect | R26Q |
